“And” between values parts separate entries of the source, which are not always exact repeats. Equal entries are not always repeated.
Key:
[1] = target: HRgpA-6H (Porphyromonas gingivalis) (UniProt P28784); experiment: ELISA, FASEBA Fab supernatant on coated HRgpA-6H
[2] = target: HRgpA-6H (Porphyromonas gingivalis) (UniProt P28784); experiment: ELISA on coated HRgpA-6H, OD relative to parental Fab

UniProt P28784, sequence (P28784 228-860 limits assumed): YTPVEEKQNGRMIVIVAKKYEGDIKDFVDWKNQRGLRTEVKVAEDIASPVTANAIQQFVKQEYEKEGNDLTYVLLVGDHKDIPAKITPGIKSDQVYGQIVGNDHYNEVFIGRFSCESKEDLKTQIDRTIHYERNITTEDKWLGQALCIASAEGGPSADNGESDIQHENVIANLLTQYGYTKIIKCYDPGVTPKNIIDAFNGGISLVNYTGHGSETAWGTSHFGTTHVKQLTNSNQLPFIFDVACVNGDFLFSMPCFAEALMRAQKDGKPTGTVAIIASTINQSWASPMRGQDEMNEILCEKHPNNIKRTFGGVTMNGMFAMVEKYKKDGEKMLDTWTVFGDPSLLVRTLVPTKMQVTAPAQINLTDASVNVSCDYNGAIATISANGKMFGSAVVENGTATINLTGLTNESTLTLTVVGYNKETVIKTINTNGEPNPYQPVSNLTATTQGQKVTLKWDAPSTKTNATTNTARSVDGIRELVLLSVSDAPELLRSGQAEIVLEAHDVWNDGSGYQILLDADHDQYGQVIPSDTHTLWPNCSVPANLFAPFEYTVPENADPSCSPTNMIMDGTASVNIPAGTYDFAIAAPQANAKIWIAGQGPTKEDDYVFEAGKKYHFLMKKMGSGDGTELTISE

Binder | OD450 nm [1] | Ratio OD(Variant)/OD(WT) [2]
KB001 mouse Fab variant VL Q91E (Fab, V domains shown) VH: EVQLKQSGPGLVAPSQSLSITCTVSGFSLSIYSVHWVRQPPGKGLEWLGMIWGGGSSDYNSALKSRLSISKDNSKSQVFLKMNSLQTDDTAMYYCARNGNFYAMDYWGQGTSVTVSS VL: QIVLTQSPAIMSASLGERVTMTCTASSSVSSSFLHWYQQKPGSSPQLWIYSTSNLASGVPARFSGSGSGTSYSLTISSMEAEDAATYYCHEYHHSPYIYTFGGGTKLEIK | 0.709 and 0.694 and 0.701 | 0.823 fold and 0.806 fold and 0.814 fold
KB001 mouse Fab variant VL S95Y (Fab, V domains shown) VH: EVQLKQSGPGLVAPSQSLSITCTVSGFSLSIYSVHWVRQPPGKGLEWLGMIWGGGSSDYNSALKSRLSISKDNSKSQVFLKMNSLQTDDTAMYYCARNGNFYAMDYWGQGTSVTVSS VL: QIVLTQSPAIMSASLGERVTMTCTASSSVSSSFLHWYQQKPGSSPQLWIYSTSNLASGVPARFSGSGSGTSYSLTISSMEAEDAATYYCHQYHHYPYIYTFGGGTKLEIK | 0.827 | 0.9 fold
KB001 mouse Fab variant VL S95T (Fab, V domains shown) VH: EVQLKQSGPGLVAPSQSLSITCTVSGFSLSIYSVHWVRQPPGKGLEWLGMIWGGGSSDYNSALKSRLSISKDNSKSQVFLKMNSLQTDDTAMYYCARNGNFYAMDYWGQGTSVTVSS VL: QIVLTQSPAIMSASLGERVTMTCTASSSVSSSFLHWYQQKPGSSPQLWIYSTSNLASGVPARFSGSGSGTSYSLTISSMEAEDAATYYCHQYHHTPYIYTFGGGTKLEIK | 0.871 | 0.948 fold
KB001 mouse Fab variant VL S95N (Fab, V domains shown) VH: EVQLKQSGPGLVAPSQSLSITCTVSGFSLSIYSVHWVRQPPGKGLEWLGMIWGGGSSDYNSALKSRLSISKDNSKSQVFLKMNSLQTDDTAMYYCARNGNFYAMDYWGQGTSVTVSS VL: QIVLTQSPAIMSASLGERVTMTCTASSSVSSSFLHWYQQKPGSSPQLWIYSTSNLASGVPARFSGSGSGTSYSLTISSMEAEDAATYYCHQYHHNPYIYTFGGGTKLEIK | 0.863 and 0.884 | 0.94 fold and 0.962 fold
KB001 mouse Fab variant VL H94Y (Fab, V domains shown) VH: EVQLKQSGPGLVAPSQSLSITCTVSGFSLSIYSVHWVRQPPGKGLEWLGMIWGGGSSDYNSALKSRLSISKDNSKSQVFLKMNSLQTDDTAMYYCARNGNFYAMDYWGQGTSVTVSS VL: QIVLTQSPAIMSASLGERVTMTCTASSSVSSSFLHWYQQKPGSSPQLWIYSTSNLASGVPARFSGSGSGTSYSLTISSMEAEDAATYYCHQYHYSPYIYTFGGGTKLEIK | 0.865 | 0.942 fold
KB001 mouse Fab variant VL Y92N (Fab, V domains shown) VH: EVQLKQSGPGLVAPSQSLSITCTVSGFSLSIYSVHWVRQPPGKGLEWLGMIWGGGSSDYNSALKSRLSISKDNSKSQVFLKMNSLQTDDTAMYYCARNGNFYAMDYWGQGTSVTVSS VL: QIVLTQSPAIMSASLGERVTMTCTASSSVSSSFLHWYQQKPGSSPQLWIYSTSNLASGVPARFSGSGSGTSYSLTISSMEAEDAATYYCHQNHHSPYIYTFGGGTKLEIK | 0.773 | 0.821 fold
KB001 mouse Fab variant VL S95F (Fab, V domains shown) VH: EVQLKQSGPGLVAPSQSLSITCTVSGFSLSIYSVHWVRQPPGKGLEWLGMIWGGGSSDYNSALKSRLSISKDNSKSQVFLKMNSLQTDDTAMYYCARNGNFYAMDYWGQGTSVTVSS VL: QIVLTQSPAIMSASLGERVTMTCTASSSVSSSFLHWYQQKPGSSPQLWIYSTSNLASGVPARFSGSGSGTSYSLTISSMEAEDAATYYCHQYHHFPYIYTFGGGTKLEIK | 0.837 | 0.911 fold
KB001 mouse Fab variant VL Y92D (Fab, V domains shown) VH: EVQLKQSGPGLVAPSQSLSITCTVSGFSLSIYSVHWVRQPPGKGLEWLGMIWGGGSSDYNSALKSRLSISKDNSKSQVFLKMNSLQTDDTAMYYCARNGNFYAMDYWGQGTSVTVSS VL: QIVLTQSPAIMSASLGERVTMTCTASSSVSSSFLHWYQQKPGSSPQLWIYSTSNLASGVPARFSGSGSGTSYSLTISSMEAEDAATYYCHQDHHSPYIYTFGGGTKLEIK | 0.758 | 0.805 fold
KB001 mouse Fab variant VL S95E (Fab, V domains shown) VH: EVQLKQSGPGLVAPSQSLSITCTVSGFSLSIYSVHWVRQPPGKGLEWLGMIWGGGSSDYNSALKSRLSISKDNSKSQVFLKMNSLQTDDTAMYYCARNGNFYAMDYWGQGTSVTVSS VL: QIVLTQSPAIMSASLGERVTMTCTASSSVSSSFLHWYQQKPGSSPQLWIYSTSNLASGVPARFSGSGSGTSYSLTISSMEAEDAATYYCHQYHHEPYIYTFGGGTKLEIK | 0.855 and 0.82 | 0.931 fold and 0.893 fold
KB001 mouse Fab variant VL Y97H (Fab, V domains shown) VH: EVQLKQSGPGLVAPSQSLSITCTVSGFSLSIYSVHWVRQPPGKGLEWLGMIWGGGSSDYNSALKSRLSISKDNSKSQVFLKMNSLQTDDTAMYYCARNGNFYAMDYWGQGTSVTVSS VL: QIVLTQSPAIMSASLGERVTMTCTASSSVSSSFLHWYQQKPGSSPQLWIYSTSNLASGVPARFSGSGSGTSYSLTISSMEAEDAATYYCHQYHHSPHIYTFGGGTKLEIK | 0.775 | 0.982 fold
KB001 mouse Fab variant VL S95C (Fab, V domains shown) VH: EVQLKQSGPGLVAPSQSLSITCTVSGFSLSIYSVHWVRQPPGKGLEWLGMIWGGGSSDYNSALKSRLSISKDNSKSQVFLKMNSLQTDDTAMYYCARNGNFYAMDYWGQGTSVTVSS VL: QIVLTQSPAIMSASLGERVTMTCTASSSVSSSFLHWYQQKPGSSPQLWIYSTSNLASGVPARFSGSGSGTSYSLTISSMEAEDAATYYCHQYHHCPYIYTFGGGTKLEIK | 0.849 | 0.924 fold
KB001 mouse Fab variant VL S95Q (Fab, V domains shown) VH: EVQLKQSGPGLVAPSQSLSITCTVSGFSLSIYSVHWVRQPPGKGLEWLGMIWGGGSSDYNSALKSRLSISKDNSKSQVFLKMNSLQTDDTAMYYCARNGNFYAMDYWGQGTSVTVSS VL: QIVLTQSPAIMSASLGERVTMTCTASSSVSSSFLHWYQQKPGSSPQLWIYSTSNLASGVPARFSGSGSGTSYSLTISSMEAEDAATYYCHQYHHQPYIYTFGGGTKLEIK | 0.893 | 0.972 fold
KB001 mouse Fab variant VL Y97Q (Fab, V domains shown) VH: EVQLKQSGPGLVAPSQSLSITCTVSGFSLSIYSVHWVRQPPGKGLEWLGMIWGGGSSDYNSALKSRLSISKDNSKSQVFLKMNSLQTDDTAMYYCARNGNFYAMDYWGQGTSVTVSS VL: QIVLTQSPAIMSASLGERVTMTCTASSSVSSSFLHWYQQKPGSSPQLWIYSTSNLASGVPARFSGSGSGTSYSLTISSMEAEDAATYYCHQYHHSPQIYTFGGGTKLEIK | 0.687 | 0.871 fold
KB001 mouse Fab variant VL S95H (Fab, V domains shown) VH: EVQLKQSGPGLVAPSQSLSITCTVSGFSLSIYSVHWVRQPPGKGLEWLGMIWGGGSSDYNSALKSRLSISKDNSKSQVFLKMNSLQTDDTAMYYCARNGNFYAMDYWGQGTSVTVSS VL: QIVLTQSPAIMSASLGERVTMTCTASSSVSSSFLHWYQQKPGSSPQLWIYSTSNLASGVPARFSGSGSGTSYSLTISSMEAEDAATYYCHQYHHHPYIYTFGGGTKLEIK | 0.8 | 0.871 fold
KB001 mouse Fab variant VL S95W (Fab, V domains shown) VH: EVQLKQSGPGLVAPSQSLSITCTVSGFSLSIYSVHWVRQPPGKGLEWLGMIWGGGSSDYNSALKSRLSISKDNSKSQVFLKMNSLQTDDTAMYYCARNGNFYAMDYWGQGTSVTVSS VL: QIVLTQSPAIMSASLGERVTMTCTASSSVSSSFLHWYQQKPGSSPQLWIYSTSNLASGVPARFSGSGSGTSYSLTISSMEAEDAATYYCHQYHHWPYIYTFGGGTKLEIK | 0.804 and 0.79 | 0.875 fold and 0.86 fold
KB001 mouse Fab variant VL H94F (Fab, V domains shown) VH: EVQLKQSGPGLVAPSQSLSITCTVSGFSLSIYSVHWVRQPPGKGLEWLGMIWGGGSSDYNSALKSRLSISKDNSKSQVFLKMNSLQTDDTAMYYCARNGNFYAMDYWGQGTSVTVSS VL: QIVLTQSPAIMSASLGERVTMTCTASSSVSSSFLHWYQQKPGSSPQLWIYSTSNLASGVPARFSGSGSGTSYSLTISSMEAEDAATYYCHQYHFSPYIYTFGGGTKLEIK | 0.77 | 0.838 fold
KB001 mouse Fab variant VL S95A (Fab, V domains shown) VH: EVQLKQSGPGLVAPSQSLSITCTVSGFSLSIYSVHWVRQPPGKGLEWLGMIWGGGSSDYNSALKSRLSISKDNSKSQVFLKMNSLQTDDTAMYYCARNGNFYAMDYWGQGTSVTVSS VL: QIVLTQSPAIMSASLGERVTMTCTASSSVSSSFLHWYQQKPGSSPQLWIYSTSNLASGVPARFSGSGSGTSYSLTISSMEAEDAATYYCHQYHHAPYIYTFGGGTKLEIK | 0.83 and 0.872 | 0.904 fold and 0.949 fold
KB001 mouse Fab variant VL H93N (Fab, V domains shown) VH: EVQLKQSGPGLVAPSQSLSITCTVSGFSLSIYSVHWVRQPPGKGLEWLGMIWGGGSSDYNSALKSRLSISKDNSKSQVFLKMNSLQTDDTAMYYCARNGNFYAMDYWGQGTSVTVSS VL: QIVLTQSPAIMSASLGERVTMTCTASSSVSSSFLHWYQQKPGSSPQLWIYSTSNLASGVPARFSGSGSGTSYSLTISSMEAEDAATYYCHQYNHSPYIYTFGGGTKLEIK | 0.857 | 0.91 fold
KB001 mouse Fab variant VL S95I (Fab, V domains shown) VH: EVQLKQSGPGLVAPSQSLSITCTVSGFSLSIYSVHWVRQPPGKGLEWLGMIWGGGSSDYNSALKSRLSISKDNSKSQVFLKMNSLQTDDTAMYYCARNGNFYAMDYWGQGTSVTVSS VL: QIVLTQSPAIMSASLGERVTMTCTASSSVSSSFLHWYQQKPGSSPQLWIYSTSNLASGVPARFSGSGSGTSYSLTISSMEAEDAATYYCHQYHHIPYIYTFGGGTKLEIK | 0.846 and 0.817 and 0.791 | 0.921 fold and 0.889 fold and 0.861 fold
KB001 parental mouse Fab (FASEBA), WT clone (Fab, V domains shown) VH: EVQLKQSGPGLVAPSQSLSITCTVSGFSLSIYSVHWVRQPPGKGLEWLGMIWGGGSSDYNSALKSRLSISKDNSKSQVFLKMNSLQTDDTAMYYCARNGNFYAMDYWGQGTSVTVSS VL: QIVLTQSPAIMSASLGERVTMTCTASSSVSSSFLHWYQQKPGSSPQLWIYSTSNLASGVPARFSGSGSGTSYSLTISSMEAEDAATYYCHQYHHSPYIYTFGGGTKLEIK | 0.9 and 0.889 | 0.98 fold and 0.968 fold
